Measurements: article PMC2939065, “Nephrocystin-1 Forms a Complex with Polycystin-1 via a Polyproline Motif/SH3 Domain Interaction and Regulates the Apoptotic Response in Mammals” (PLoS ONE, 2010)

T1: NPHP1-SH3 (15N-labelled SH3 domain of nephrocystin-1 for NMR and ITC) (Homo sapiens (Human), UniProt O15259)
T1 chain: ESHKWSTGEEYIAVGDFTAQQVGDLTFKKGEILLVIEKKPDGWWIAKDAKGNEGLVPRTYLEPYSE

T2: NPHP1-SH3 (15N-labelled SH3 domain of nephrocystin-1 for NMR and ITC) (human, UniProt O15259 147-212)
T2 construct: Nephrocystin-1 (NPHP1), human, SH3 domain, codons 147-212, expressed from pGEX-2T; 15N isotope label for NMR; also called 15N NPHP1-SH3
T2 sequence (looked up): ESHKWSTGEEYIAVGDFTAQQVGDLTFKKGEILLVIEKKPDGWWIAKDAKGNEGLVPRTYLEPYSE


Tests used:
[1] = target: T1, NPHP1-SH3 (15N-labelled SH3 domain of …); assay: NMR titration (1H-15N HSQC)
[2] = target: T2, NPHP1-SH3 (15N-labelled SH3 domain of …); assay: NMR titration; 1H-15N HSQC of 15N NPHP1-SH3 (0.3 mM) with added peptide (0, 0.5, 1, 1.5, 2, 3, 4 equivalents for peptPP2); fast exchange; conditions: both partners purified

Row | binding result [1] | Kd [2] [µM] | Binder
1 | no binding | – | Ac-RGSKVSPDVPPPS-NH2 (protein) [peptPP1]
2 | – | 300 ± 20 | Ac-GLRPALPSRLARAS-NH2 (stretch of the PC-1 C-tail containing PP2 (P4267ALPSR4272), aminoacids 4264-4277; also called PP2 peptide; source: synthetic peptide, bought: CASLO (Lyngby, Denmark)) [peptPP2]
